Experimental data: IntAct's records for PubMed 20696398

B1: Vacuolar protein sorting-associated protein 4 (Saccharomyces cerevisiae), P52917 (parent)
chain: MSTGDFLTKGIELVQKAIDLDTATQYEEAYTAYYNGLDYLMLALKYEKNPKSKDLIRAKFTEYLNRAEQLKKHLESEEANAAKKSPSAGSGSNGGNKKISQEEGEDNGGEDNKKLRGALSSAILSEKPNVKWEDVAGLEGAKEALKEAVILPVKFPHLFKGNRKPTSGILLYGPPGTGKSYLAKAVATEANSTFFSVSSSDLVSKWMGESEKLVKQLFAMARENKPSIIFIDEVDALTGTRGEGESEASRRIKTELLVQMNGVGNDSQGVLVLGATNIPWQLDSAIRRRFERRIYIPLPDLAARTTMFEINVGDTPCVLTKEDYRTLGAMTEGYSGSDIAVVVKDALMQPIRKIQSATHFKDVSTEDDETRKLTPCSPGDDGAIEMSWTDIEADELKEPDLTIKDFLKAIKSTRPTVNEDDLLKQEQFTRDFGQEGN
partner: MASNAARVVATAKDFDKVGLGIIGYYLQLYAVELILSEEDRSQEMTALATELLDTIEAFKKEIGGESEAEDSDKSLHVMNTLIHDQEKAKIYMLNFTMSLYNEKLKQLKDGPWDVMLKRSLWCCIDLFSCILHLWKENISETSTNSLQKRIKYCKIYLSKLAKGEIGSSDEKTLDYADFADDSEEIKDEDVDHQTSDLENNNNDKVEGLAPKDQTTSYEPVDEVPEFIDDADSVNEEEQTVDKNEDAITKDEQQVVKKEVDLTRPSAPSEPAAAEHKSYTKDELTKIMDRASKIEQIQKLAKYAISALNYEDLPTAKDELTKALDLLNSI
B2: Vacuolar protein sorting-associated protein VTA1 (Saccharomyces cerevisiae), Q06263 (parent)
chain: B1 partner
partner: B1 chain

Variants of: B1
Conditions: with vta1_yeast VTA1, Q06263

effect of a mutation on the interaction	Variant
decreasing interaction	H359D

Variants of: B2
Conditions: with vps4_yeast VPS4, P52917

Variant	effect of a mutation on the interaction
Y303A	disrupting interaction
S306R	decreasing interaction
A307D	disrupting interaction

Other lines, results leading:

effect of a mutation on the interaction	Variant
decreasing interaction	D312A
decreasing interaction	T315R
